Measurements reported in patent US9862971B2 (BUNDESREPUBLIK DEUTSCHLAND, LETZTVERTRETEN DURCH DEN …, dated 2018).

Biological target: CD46 (human, UniProt P15529)
Assay: cell-based or functional assay

B1: MeV HEdm wildtype (wt) protein (other)
chain: MSPQRDRINAFYKDNPHPKGSRIVINREHLMIDRPYVLLAVLFVMFLSLIGLLAIAGIRLHRAAIYTAEIHKSLSTNLDVTNSIEHQVKDVLTPLFKIIGDEVGLRTPQRFTDLVKFISDKIKFLNPDREYDFRDLTWCINPPERIKLDYDQYCADVAAEELMNALVNSTLLETRTTNQFLAVSKGNCSGPTTIRGQFSNMSLSLLDLYLGRGYNVSSIVTMTSQGMYGGTYLVEKPNLSSKRSELSQLSMYRVFEVGVIRNPGLGAPVFHMTNYLEQPVSNDLSNCMVALGELKLAALCHGEDSITIPYQGSGKGVSFQLVKLGVWKSPTDMQSWVPLSTDDPVIDRLYLSSHRGVIADNQAKWAVPTTRTDDKLRMETCFQQACKGKIQALCENPEWAPLKDNRIPSYGVLSVDLSLTVELKIKIASGFGPLITHGSGMDLYKSNHNNVYWLTIPPMKNLALGVINTLEWIPRFKVSPYLFTVPIKEAGGDCHAPTYLPAEVDGDVKLSSNLVILPGQDLQYVLATYDTSRVEHAVVYYVYSPSRSFSYFYPFRLPIKGVPIELQVECFTWDQKLWCRHFCVLADSESGGHITHSGMVGMGVSCTVTREDGTNRR
  titer [t.u./ml] of HIV-1 vector particles on 293T cells, concentrated supernatant: 0 t.u./ml
  titer [t.u./ml] of HIV-1 vector particles on U-87MG cells, concentrated supernatant: 0 t.u./ml
